{"source": "paper PMC9307851", "molecular_target": "DNMT3B MTase domain WT (human, UniProt Q9UBC3 569-853)", "experiment": "ITC; 5 C; ITC: 20 mM Tris-HCl pH 7.2, 200 mM NaCl, 5% glycerol, 2 mM b-mercaptoethanol, 5 C; EMSA: 50 mM Tris-HCl pH 8.0, 25% glycerol, 8% glucose, 2 mM DTT, 0.1 mg/mL BSA, 30 min, gel in 0.5x TBE at 4 C", "settings": "protein: recombinant; tags: His6-MBP removed by TEV; (only upper strand given)"}
{"binder": "24-mer DNA duplex (GAC)8 (dsDNA) DNA 1: GACGACGACGACGACGACGACGAC DNA 2: GTCGTCGTCGTCGTCGTCGTCGTC", "values": [{"measurement": "Kd", "result": "4 ± 0.1", "unit": "µM"}]}
